Experimental data from US20210115146A1.

How the values were obtained:
[1] = biological target: human EGFR (cell surface) (human) (UniProt P00533); assay: FACS binding to A431 cells, lower panel and table; curve flat
[2] = biological target: human EGFR (cell surface) (human) (UniProt P00533); assay: FACS binding to A431 cells, upper panel and table; EC50 cell reads N/A, curve flat
[3] = biological target: Macaca fascicularis EGFR (cell surface) (Macaca fascicularis); assay: FACS binding to W562.CHOK1.cPro1.H6 cells (monkey EGFR), upper panel and table; curve flat
[4] = biological target: mouse EGFR (cell surface) (mouse) (UniProt Q01279); assay: FACS binding to W562-CHO-K1.mPro1.F3 cells (mouse EGFR), lower panel and table; EC50 cell reads N/A, curve flat
[5] = biological target: Macaca fascicularis EGFR (cell surface) (Macaca fascicularis); assay: FACS binding to W562-CHO-K1.cPro1.H6 cells (monkey EGFR), lower panel and table; EC50 cell reads N/A, curve flat
[6] = biological target: human EGFR (cell surface) (human) (UniProt P00533); assay: FACS binding to A431 cells, lower panel and table; the curve is flat at the baseline, so this is the fit of a flat curve (see non_binding)
[7] = biological target: human EGFR (cell surface) (human) (UniProt P00533); assay: FACS competition on A431 cells, blocked ligand EGF-biotin, MFI is the EGF-biotin signal; lower panel and table; IC50 cell reads N/A, no inhibition
[8] = biological target: human EGFR (cell surface) (human) (UniProt P00533); assay: FACS competition on A431 cells, blocked ligand EGF-biotin, MFI is the EGF-biotin signal; upper panel and table; IC50 cell reads N/A, no inhibition
[9] = biological target: Macaca fascicularis EGFR (cell surface) (Macaca fascicularis); assay: FACS binding to W562.CHOK1.cPro1.H6 cells (monkey EGFR), upper panel and table; the curve is flat at the baseline, so this is the fit of a flat curve (see non_binding)
[10] = biological target: mouse EGFR (cell surface) (mouse) (UniProt Q01279); assay: FACS binding to mouse EGFR cells; the table head prints W562.CHOK1.cPro1.H6; EC50 cell reads N/A, curve flat

Substance: Isotype (antibody)
- TOP MFI [1]: 58.5 MFI
- Top MFI [2]: 35.1 MFI
- Top MFI [3]: 35.6 MFI
- TOP MFI [4]: 85.6 MFI
- TOP MFI [5]: 54.9 MFI
- EC50 [6]: 0.01 nM
- Bottom MFI [7]: 3890 MFI
- Bottom MFI [8]: 4680 MFI
- EC50 [9]: 0.07 nM
- Top MFI [10]: 32.3 MFI
